This note sets out measurements from US20210214435A1 (MorphoSys, published 2021).

The target in assay [1] is T1, cynomolgus monkey GPVI extracellular domain fused at its C-terminus to human IgG1 Fc (GPVI-Fc) (cynomolgus monkey; human).
T1 construct: also called cyGPVI-2; cyGPVI
Kind of assay: Competition ELISA (MSD): cynomolgus GPVI-Fc preincubated with Fab, then on coated rat-tail collagen (competitor). As to the method:
(§1) 1 or 10 μg/ml of recombinant GPVI collagen substrate (crosslinked collagen-related peptide (CRP-XL (Anaspec, Inc.), rat-tail collagen (Enzo Life Sciences) or VitroCol (Advanced BioMatrix, Inc.) was coated on a MSD-plate over night at 4° C., washed with PBST, blocked for 1 h at RT with PBS supplemented with 0.05% Tween-20 and 3% skim milk powder, and subsequently washed again with PBST. Purified recombinant GPVI antigens (human, cynomolgus monkey or mouse GPVI as prepared in Example 1) diluted in PBS and varying concentrations of Fab (comprising a modified heavy chain constant region) diluted in PBS (final concentration range 200-0.3 μg/ml) were incubated in a polypropylene plate for 30 min at RT. Fab/GPVI-Fc mixture was added to coated collagen substrate for 1 h at RT. After washing with PBST, bound GPVI form different species was detected using an ECL-conjugated detection antibody directed against human Fc (Jackson Immuno Research) for 1 h at RT. MSD read buffer (Meso Scale Discovery) was added prior to readout in a Sector Imager6000 (Meso Scale Discovery).

Assay [2] addresses T1, cynomolgus monkey GPVI extracellular …. The assay is described as follows: Competition ELISA (MSD): cynomolgus GPVI-Fc preincubated with Fab, then on coated CRP-XL (competitor). As to the method: as §1
In assay [3] the target is T2, mouse GPVI extracellular domain fused at its C-terminus to human IgG1 Fc (GPVI-Fc) (mouse; human).
T2 construct: also called mGPVI; mouse GPVI-Fc
Kind of assay: Competition ELISA (MSD): mouse GPVI-Fc preincubated with Fab, then on coated CRP-XL (competitor). Here is the method: as §1
A general note: An ELISA detects its analyte on a solid surface through an enzyme-linked reagent.

Assay [4] addresses T2, mouse GPVI extracellular domain fused …. The assay is described as follows: Competition ELISA (MSD): mouse GPVI-Fc preincubated with Fab, then on coated rat-tail collagen (competitor). Here is the method: as §1
For assay [5], the target named is T1, cynomolgus monkey GPVI extracellular …. Kind of assay: Competition ELISA (MSD): cynomolgus GPVI-Fc preincubated with Fab, then on coated VitroCol (competitor). As to the method:
as §1

In assay [6] the target is T3, cynomolgus monkey GPVI (full-length) expressed on stably transfected CHO cells (cynomolgus monkey, UniProt Q9HCN6 21-339 (human entry)).
T3 chain: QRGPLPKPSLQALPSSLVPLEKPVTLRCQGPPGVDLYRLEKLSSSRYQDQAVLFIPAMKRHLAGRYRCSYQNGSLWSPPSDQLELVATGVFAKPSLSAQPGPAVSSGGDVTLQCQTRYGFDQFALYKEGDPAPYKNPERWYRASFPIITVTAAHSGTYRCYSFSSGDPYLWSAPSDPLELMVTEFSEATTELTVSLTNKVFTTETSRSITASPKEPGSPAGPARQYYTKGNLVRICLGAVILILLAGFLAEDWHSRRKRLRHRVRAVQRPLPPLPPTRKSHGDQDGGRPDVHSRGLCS
The assay is described as follows: Cell ELISA (MSD) on CHO cells expressing GPVI. Here is the method: (§2) CHO cells stably transfected with either human, cynomolgus monkey, or mouse GPVI (SEQ ID NO: 1, SEQ ID NO: 2, SEQ ID NO: 3, respectively and as described in Example 1) were seeded at a density of 5000 cells/well in growth medium on a 96 well high bind plate (Meso Scale Discovery) and cultivated overnight at 37° C. and 5% CO2. Cells were blocked with PBS supplied with 5% BSA and then incubated with Fab (comprising a modified heavy chain constant region) serially diluted to concentrations between 300 nM to 5 pM in PBS supplied with 0.5% BSA. After washing, bound Fab was detected using ECL-conjugated detection antibody directed against human F(ab′)2 fragment (Jackson Immuno Research). MSD read buffer (Meso Scale Discovery) was added to cells prior to readout in a Sector Imager6000 (Meso Scale Discovery). EC50 values were calculated using Prism 5 software (GraphPad).

The target in assay [7] is T4, mouse GPVI (full-length) expressed on stably transfected CHO cells (mouse, UniProt P0C191 22-313).
T4 sequence: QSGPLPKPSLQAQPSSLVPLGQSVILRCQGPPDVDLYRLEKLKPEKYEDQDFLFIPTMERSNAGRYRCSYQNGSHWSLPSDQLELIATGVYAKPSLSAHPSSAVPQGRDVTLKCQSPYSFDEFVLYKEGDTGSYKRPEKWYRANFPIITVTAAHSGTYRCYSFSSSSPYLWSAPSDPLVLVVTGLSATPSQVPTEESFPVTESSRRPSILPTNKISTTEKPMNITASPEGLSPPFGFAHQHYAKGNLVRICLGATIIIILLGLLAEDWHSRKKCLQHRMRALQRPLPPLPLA
The assay is described as follows: Cell ELISA (MSD) on CHO cells expressing GPVI. As to the method: as §2

Assay [8] deals with T5, human GPVI (full-length) expressed on stably transfected CHO cells (human, UniProt Q9HCN6 21-339).
T5 chain: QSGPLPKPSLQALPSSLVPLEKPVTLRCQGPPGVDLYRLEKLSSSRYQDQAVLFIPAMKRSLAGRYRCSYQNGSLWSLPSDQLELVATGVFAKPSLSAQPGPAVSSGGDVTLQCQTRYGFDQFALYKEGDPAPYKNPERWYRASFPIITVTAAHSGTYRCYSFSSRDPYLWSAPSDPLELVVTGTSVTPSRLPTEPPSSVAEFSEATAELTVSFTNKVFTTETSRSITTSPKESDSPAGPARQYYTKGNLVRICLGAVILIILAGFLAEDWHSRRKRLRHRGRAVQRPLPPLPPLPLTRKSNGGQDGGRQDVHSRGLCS
Kind of assay: Cell ELISA (MSD) on CHO cells expressing GPVI. As to the method: as §2

B1: Fab #4 comprising a modified heavy chain constant region (Fab, V domains shown)
VH: QVQLVQSGAEVKKPGASVKVSCKASGGAFTSSYMHWVRQAPGQGLEWMGIIEPTGASTLYAQRFQGRVTMTRDTSTSTVYMELSSLRSEDTAVYYCARTGIALPLGFDLWGQGTLVTVSS
VL: QSVLTQPPSVSAAPGQKVTISCSGSSSNIGNNYVSWYQQLPGTAPKLLIYDNNKRPSGIPDRFSGSKSGTSATLGITGLQTEDEADYYCAAWSTRFRWVFGGGTKLTVLG
notes: Human Fab from the Ylanthia library; produced in HKB11 cells; also called Fab #4 mod; HC
As a reminder, the IC50 is the concentration at which inhibition is half-maximal. For orientation: EC50 means the concentration giving half of the maximal effect. B1: the half-inhibitory concentration (IC50) in assay [1] turned out to be 9.1 nM; in assay [2], 11.3 nM; in assay [3], 10.6 nM; in assay [5], 8.1 nM. Moreover, the “Max. inhibition at 200 nM Fab [%]” value was 83% in assay [1]; 51% in assay [2]; 67% in assay [3]; 87% in assay [4]; 91% in assay [5]. In addition, the EC50 in assay [6] came to 0.8 nM; in assay [7] it was 0.93 nM; in assay [8] it was 0.78 nM.

B2: Fab #2 comprising a modified heavy chain constant region (Fab, V domains shown)
VH: QVQLVESGGGLVKPGGSLRLSCAASGFSFSDHYMSWIRQAPGKGLEWVSSVGSEGKFIDYAASVKGRFTISRDNAKNSLYLQMNSLRAEDTAVYYCARHYREFRWHYYYFDYWGQGTLVTVSS
VL: QSVLTQPPSVSGAPGQRVTISCTGSSSNIGAGYDVHWYQQLPGTAPKLLIYGNSNRPSGVPDRFSGSKSGTSASLAITGLQAEDEADYYCQSHDLGAHVWVFGGGTKLTVLG
notes: Human Fab from the Ylanthia library; produced in HKB11 cells; also called Fab #2 mod; HC
As to B2, the 50% inhibitory concentration (IC50) in assay [1] was 7.1 nM; in assay [2] it was 7.9 nM; in assay [3], 12 nM; in assay [4] it was 5.7 nM; in assay [5] it was 4.3 nM. The “Max. inhibition at 200 nM Fab [%]” value in assay [1] was 100%; in assay [2] it was 100%; in assay [3] it was 99%; in assay [4], 99%; in assay [5], 100%. The EC50 in assay [6] worked out at 1.06 nM; in assay [7] it was 8.28 nM; in assay [8] it was 0.78 nM.

B3: Fab #3 comprising a modified heavy chain constant region (Fab, V domains shown)
VH: QVQLVESGGGLVKPGGSLRLSCAASGFSFGDYYVSWIRQAPGKGLEWVSAIGGSGSAVQYAESVKGRFTISRDNAKNSLYLQMNSLRAEDTAVYYCARHYREFRWHYYYFDYWGQGTLVTVSS
VL: QSVLTQPPSVSGAPGQRVTISCTGSSSNIGAGYDVHWYQQLPGTAPKLLIYGNSNRPSGVPDRFSGSKSGTSASLAITGLQAEDEADYYCQSHDLGAHVWVFGGGTKLTVLG
notes: Human Fab from the Ylanthia library; produced in HKB11 cells; also called Fab #3 mod; HC
On to B3, for which the IC50 in assay [1] came to 7.6 nM; in assay [2] it was 9.1 nM; in assay [3], 8.1 nM; in assay [4] it was 5.3 nM; in assay [5], 4.7 nM. Further, the “Max. inhibition at 200 nM Fab [%]” value in assay [1] turned out to be 99%; in assay [2], 100%; in assay [3] it was 100%; in assay [4] it was 99%; in assay [5] it was 100%. The figures for the 50% effective concentration (EC50) in assay [6], in assay [7] and in assay [8] were 1.06 nM, 3.74 nM and 0.77 nM, respectively.

B4: Reference Control Antibody RefFab #1 (humanized GPVI antibody of WO2011073954A2, SANOFI) (Fab, V domains shown)
VH: EVQLLESGPGLVAPSGSLSITCTVSGFSLTGYGVNWVRQPPGKGLEWLGMIWGDGSTDYQSTLKSRLSISKDNSKSQVFLKMNSLRTDDTARYYCARDLPMDYWGLGTSVTVSS
VL: DIQMTQSPSSLSASVGGRVTITCKASQDINKYIAWYQHKPGKGPSLLIHYTSTLQPGVPSRFSGSGSGRDYSFSISNLQPEDIATYYCLQYANLLTFGGGTKLEIKR
notes: Cloned into mammalian Fab expression vectors; a glycine-serine linker (G4S)2 was added to the C-terminus of the Fab heavy chain
On to B4, for which the results for the half-maximal inhibitory concentration (IC50) in assay [1], in assay [2] and in assay [5] were 8.8 nM, 9.5 nM and 5.5 nM, respectively. For the same molecule, the “Max. inhibition at 200 nM Fab [%]” value in assay [1] was 99%; in assay [2], 100%; in assay [5], 100%. The 50% effective concentration (EC50) in assay [6] is 2.09 nM; in assay [8] it was 2.8 nM.

B5: Fab #1 comprising a modified heavy chain constant region (Fab, V domains shown)
VH: QVQLVQSGAEVKKPGASVKVSCKASGYTFTSHYMHWVRQAPGQGLEWMGLIEPSEGETEYAQRFQGRVTMTRDTSTSTVYMELSSLRSEDTAVYYCARDSSRSYPLGFDIWGQGTLVTVSS
VL: QSVLTQPPSVSAAPGQKVTISCSGSSSNIGNNYVSWYQQLPGTAPKLLIYDNNKRPSGIPDRFSGSKSGTSATLGITGLQTEDEADYYCAAWDFRSSRWVFGGGTKLTVLG
notes: Human Fab from the Ylanthia library; produced in HKB11 cells; also called Fab #1 mod; HC
For the molecule B5, the half-maximal inhibitory concentration (IC50) in assay [1] turned out to be 9.6 nM; in assay [2] it was 11.5 nM; in assay [3], 26.4 nM; in assay [4], 17.2 nM; in assay [5], 9.7 nM. Besides, the “Max. inhibition at 200 nM Fab [%]” value in assay [1] was determined as 86%; in assay [2], 59%; in assay [3], 77%; in assay [4], 89%; in assay [5] it was 84%. Also, the half-maximal effective concentration (EC50) in assay [6] was determined as 0.74 nM; in assay [8], 0.89 nM.
